Measured values from article PMC5802752 (Nature Communications, 2018).

Molecular target: T1, factor H-binding protein (fHbp) variant 1.1, recombinant (Neisseria meningitidis serogroup B MC58 …, UniProt Q9JXV4)
T1 construct: not shown: His6, C-terminal, kept
Test: crystal structure
Conditions: both partners purified

B1: human Fab 1A12 (Fab, V domains shown)
VH: EVQLVQSGAELKKPGESLKISCKASGYTFTNYWVVWVRQMPGEGLEWMGSIHPRDSDARYSLSFEGRVTFSVDKSTTTAYLQWSSLKVSDSAIYYCARLSQVSGWSPWVGPWGQGTLVTVSS
VL: DIVMTQSPSSLSASVGDRVTITCRASQSISVSLNWYQQKPGKAPKVLIYAASRLQSGIPSRFSGSGSGSHFTLTISSLQPEDFATYYCQETYSDLMYTFGQGTKVEIK
binding result: binds
